Source: article PMC8231982 (Molecules, 2021)

T1: wild-type cyanovirin-N (WT CV–N) ( (cyanobacterial lectin), UniProt P81180 1-101)
T1 construct: also called WT CV–N monomer; monomeric CV–N
T1 sequence: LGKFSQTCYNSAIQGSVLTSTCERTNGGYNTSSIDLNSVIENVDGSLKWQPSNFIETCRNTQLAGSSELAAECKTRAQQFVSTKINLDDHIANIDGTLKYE


Columns and labels:
Details in all cases: both partners purified
[1] = target: T1, wild-type cyanovirin-N (WT CV–N); test: SPR
[2] = target: T2, HA H3 top domain ( (Figure 2 shows HA of …, UniProt P03437)); test: SPR
T2 construct: source: HEK293T, pTT5 vector, purified via His-tag on Ni-NTA

[3] = target: T2, HA H3 top domain; test: ELISA

Binder	Kd [1]	Kd [2]	koff [2]	kon [2]	Kd [3]
HIV-1 gp140 trimer, Clade A 92 UG 037.8 (domain or fragment) not shown	120 nM	–	–	–	–
HC19 Fab, anti-influenza HA (Fab, V domains shown, also called anti-HA HC19; HC19 anti-influenza Fab; source: HEK293-6E, transient transfection, purified from supernatant (protein A, SEC)) VH: QVQLKESGPGLVAPSQSLSITCTVSGFLLISNGVHWVRQPPGKGLEWLGVIWAGGNTNYNSALMSRVSISKDNSKSQVFLKMKSLQTDDTAMYYCARDFYDYDVFYYAMDYWGQGTSVTVSS VL: QAVVTQESALTTSPGETVTLTCRSSTGAVTTSNYANWVQEKPDHLFTGLIGGTNNRAPGVPARFSGSLIGDKAALTITGAQTEDEAIYFCALWYSNHWVFGGGTKLTVL	–	64 nM	0.0231 s⁻¹	360000 M⁻¹ s⁻¹	12.5 nM
